From US8673579B2, “Peptide probes for diagnostics and therapeutics” (priority 2006, dated 2014)
pyrene = pyrene fluorescent label

How the values were obtained:
[1] = Circular dichroism secondary structure calculation; type: physicochemical; conditions: circular dichroism in 30% TFE/Tris, CDPRO deconvolution
Aβ plaques [2] = target: T1, Aβ plaques (Homo sapiens, UniProt P05067)
Aβ40 = Aβ40 (Homo sapiens, UniProt P05067); assay: Pyrene-labeled peptide probe fluorescence with structural forms of Aβ40; type: binding
Chain of Aβ40 (P05067 672-711): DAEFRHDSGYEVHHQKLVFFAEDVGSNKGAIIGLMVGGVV
Source text: (§1) A peptide probe specific for Aβ (SEQ ID NO:36) is used to detect specific structural forms of Aβ40 and Aβ42. The peptide probe is labeled at each terminus with pyrene. The peptide probe is contacted with different samples comprising Aβ42 oligomers, Aβ40 oligomers, and Aβ40 monomers.
(§2) Interaction between the peptide probe and sample is detected by excitation at 350 nm and scanning fluorescence from 360 to 600 nm. […] FIG. 11A (fibers and monomer) & 11B (oligomers).

Aβ42 = Aβ42 (Homo sapiens, UniProt P05067); assay: Pyrene-labeled peptide probe fluorescence with structural forms of Aβ42; type: binding
Chain of Aβ42 (P05067 672-713): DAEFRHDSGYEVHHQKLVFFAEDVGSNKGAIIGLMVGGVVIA
Source text: as §1, §2

[3] = tested on: Aβ40 and Aβ42 in human cerebrospinal fluid (CSF); assay: Detection of Aβ in human CSF samples (excimer/monomer fluorescence ratio); type: binding; conditions: 40 μL CSF, 2 μM dipyrene-labeled probe, 1 hour; ratio 430-530 nm over 370-385 nm
Source text: A peptide probe specific for Aβ (SEQ ID NO:36) is used to detect Aβ40 and Aβ42 in samples of human cerebrospinal fluid (CSF) obtained from Alzheimer's patients and from age-matched healthy patients. […] The data is presented in FIG. 12 as the ratio of the […] region (430-530 nm) over the monomeric region (370-385 nm). […] FIG. 12A presents the data for each patient, while FIG. 12B presents the average data for each patient group.

[4] = tested on: Aβ40 and Aβ42 in human serum; assay: Detection of Aβ in human serum with immobilized biotinylated peptide probe; type: binding; conditions: 200 μL serum; biotinylated probe on streptavidin magnetic beads, then 2 μM dipyrene-labeled probe 3-5 hours
Description: Biotinylated peptide probe is immobilized to Dynal magnetic beads coated with streptavidin. These beads are incubated directly with the serum samples for 1 hour, then the magnetic beads and the captured material are pulled down to remove the serum samples.

Aβ plaques [5] = target: T1, Aβ plaques; assay: In vitro staining of brain sections from hAPP751SL transgenic mice; type: binding
Description: The following illustrates the ability of peptide probes to target Aβ plaques (e.g., insoluble self-aggregates of Aβ protein associated with Alzheimer's disease) both in vitro and in vivo. A peptide probe specific for Aβ (SEQ ID NO:36) and labeled at each terminus with pyrene is used.
In vitro studies are carried out on brain sections from transgenic mice over-expressing human APP751 with London and Swedish mutations (hAPP751SL). This protein is an Aβ mutant that forms neuritic plaques in the transgenic mice. Tissue from non-transgenic littermate mice served as control tissue.
Two different types of tissue slices are evaluated: cyro-cut (frozen and sliced) and paraffin embedded and sliced. The peptide probe is incubated on the brain slices and binding of the peptide probe to the brain, and to the amyloid deposits/plaques in particular, are qualitatively evaluated. For reference purposes, consecutive slices are immunohistochemically stained with an anti-Aβ antibody, the 6E10 antibody or Thioflavin S. The use of anti-Aβ controls confirms the specificity of the staining on neuritic plaques.
Images are recorded on a Nikon E800 microscope with a mounted PixelFly camera. For tiled image recordings, the microscope is equipped with a StagePro software controlled automatic table. Images of peptide probe staining and antibody and ThioflavinS staining, respectively, are overlaid in Adobe Photo Shop software
In the latter samples, cells from the neuronal layer of the hippocampus are marked, as are brain tissue around plaques in the cortex. Thus, the quality of the stain may be better on paraffin sections.

PrP^Sc [6] = target: T2, PrP^Sc (Ovis aries, UniProt P23907)
T2 sequence (P23907 25-233 limits assumed): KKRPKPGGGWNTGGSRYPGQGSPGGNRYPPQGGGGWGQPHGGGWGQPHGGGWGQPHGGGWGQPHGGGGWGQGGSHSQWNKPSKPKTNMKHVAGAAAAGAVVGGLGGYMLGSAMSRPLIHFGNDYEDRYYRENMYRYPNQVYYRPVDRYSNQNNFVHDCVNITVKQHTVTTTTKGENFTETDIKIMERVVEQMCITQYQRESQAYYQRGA

PrP^Sc [7] = target: T3, PrP^Sc (Mesocricetus auratus, UniProt P04273)
T3 sequence (P04273 23-231 limits assumed): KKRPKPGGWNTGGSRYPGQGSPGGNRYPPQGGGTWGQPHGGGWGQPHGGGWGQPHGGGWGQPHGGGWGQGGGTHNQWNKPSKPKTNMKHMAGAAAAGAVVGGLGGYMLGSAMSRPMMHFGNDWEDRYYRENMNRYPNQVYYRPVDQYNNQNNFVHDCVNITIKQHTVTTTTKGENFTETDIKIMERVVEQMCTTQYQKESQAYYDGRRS

PrP^Sc [8] = target: T3, PrP^Sc; remark: listed apart in the source
PrP^Sc [9] = target: T2, PrP^Sc; remark: listed apart in the source
[10] = intranasal labeled peptide probe
[11] = general statement in description
[12] = probe labeled at each terminus with pyrene, excitation 350 nm, scan 360 to 600 nm

T1 sequence (P05067 672-713 limits assumed): as the sequence (P05067 672-713) above

labeled peptide probe: peptide probe specific for Aβ (SEQ ID NO:36) labeled at each terminus with pyrene (pyrene-KLVFFAEDVGSNKGAIIGLM-pyrene)
turn/unordered structure [1]: 54.1%
α helix structure [1]: 18.3%
β strand (sheet) structure [1]: 27.6%

KLVFFAEDVGSNKGAIIGLM [SEQ ID NO:36, peptide probe specific for Aβ: Aβ 17-35 with additional N-terminal lysine]
binding in brain of hAPP751SL transgenic mice (Aβ plaques [2]; [10]): binds to the amyloid and agglomerates outside the blood vessel in the brain
distribution and binding in brain of nontransgenic mice (Aβ plaques [2]; [10]): reaches the olfactory bulb, but does not bind to a specifiable morphological structure
crossing of the blood-brain barrier (BBB) (Aβ plaques [2]; mouse, in vivo): crosses the blood-brain barrier
specific reaction with Aβ40 monomers (Aβ40; [11]): do not specifically react
specific reaction with Aβ40 oligomers (Aβ40; [11]): specifically react
dose-dependent reaction with Aβ40 fibers (Aβ40; [12]): reacts
dose-dependent reaction with Aβ40 monomer (Aβ40; [12]): dose not react
dose-dependent reaction with Aβ40 oligomers (Aβ40; [12]): reacts
specific reaction with Aβ42 monomers (Aβ42; [11]): do not specifically react
specific reaction with Aβ42 oligomers (Aβ42; [11]): specifically react
dose-dependent reaction with Aβ42 fibers (Aβ42; [12]): reacts
dose-dependent reaction with Aβ42 oligomers (Aβ42; [12]): reacts
turn/unordered structure [1]: 55.5%
α helix structure [1]: 19.4%
β strand (sheet) structure [1]: 25.1%
stratification of Alzheimer's patients from age-matched healthy patients [3]: able to stratify
stratification of Alzheimer's patients from age-matched healthy patients [4]: able to stratify
staining of human amyloid peptide bearing blood vessels (Aβ plaques [5]; hAPP751SL transgenic brain slices): specifically stained
plaque specificity of staining, paraffin versus cryo-cut slices (Aβ plaques [5]; overlay with antibody staining of consecutive slices): staining on paraffin slices is more specific to plaques than staining on cryo-cut slices
staining of plaques on brain slices (Aβ plaques [5]; paraffin or cryo-cut slices, dipyrene-labeled probe): plaque-specific staining is apparent

Aβ42 fibers: fibers of Aβ42 amyloid beta protein used as sample
turn/unordered structure [1]: 27.2%
α helix structure [1]: 12.6%
β strand (sheet) structure [1]: 60.2%

Aβ40 fibers: fibers of Aβ40 amyloid beta protein used as sample
turn/unordered structure [1]: 35.9%
α helix structure [1]: 5.6%
β strand (sheet) structure [1]: 58.4%

oligomers of Aβ42: sample of oligomers of Aβ42 including dimers, trimers, tetramers, hexamers and 12-mers
turn/unordered structure [1]: 45.4%
β strand (sheet) structure [1]: 52.7%

VVAGAAAAGAVHKMNTKPKMKHVAGAAAAGAVV [SEQ ID NO:43]
effect of sample sonication on signal-to-noise (PrP^Sc [6]): improved the signal-to-noise ration
reactivity with PrP^Sc in sera from infected sheep (PrP^Sc [6]): reacted
reactivity with sera from normal sheep (PrP^Sc [6]): did not react
sensitivity (PrP^Sc [6]): 100%
specificity (PrP^Sc [6]): 100%
reactivity with smaller versus larger PrP^Sc aggregates (PrP^Sc [7]): reacts with smaller PrP^Sc aggregates over larger PrP^Sc aggregates
reactivity after sonication of samples (PrP^Sc [8]): increased reactivity
relative reactivity with sheep blood components (PrP^Sc [9]): buffy coat>serum>plasma
